Target: ZZ-CBM3 (Staphylococcus aureus)
Test: pull-down; ZZ-CBM3 pre-anchored on discs of cellulose hydrogel (8Cell, 14Cell, 18Cell; 5 mm, 30 mg); 100 uL of IgG (0.312-10.0 uM) in TST buffer incubated 18 h at 37 °C; free IgG in the supernatant by absorbance at 280 nm (NanoDrop), bound IgG by mass balance; triplicates

grafting yield relative to the initial amount contacted with the modified hydrogels: 26 to 89%
stoichiometry N (mol IgG per mol ZZ-CBM3): 1
Substance: Human normal immunoglobulin (IgG) (antibody)

Source: publication PMC8227779
